# Assay results: article PMC12098869, “An mRNA-display derived cyclic peptide scaffold reveals the substrate binding interactions of an N-terminal cysteine oxidase” (Nature Communications, 2025)
# B1: 2-aminoethanethiol dioxygenase (ADO), full-length human, N-terminally His-tagged and biotinylated (pQE80L-Navi-ADO) [modified: biotin (biotinylated during expression, 0.2 mM biotin added); biotin (biotinylated during … (parent)
# chain 1: CKGLAALPHSCLER
# chain 2: MPRDNMASLIQRIARQACLTFRGSGGGRGASDRDAASGPEAPMQPGFPENLSKLKSLLTQLRAEDLNIAPRKATLQPLPPNLPPVTYMHIYETDGFSLGVFLLKSGTSIPLHDHPGMHGMLKVLYGTVRISCMDKLDAGGGQRPRALPPEQQFEPPLQPREREAVRPGVLRSRAEYTEASGPCILTPHRDNLHQIDAVEGPAAFLDILAPPYDPDDGRDCHYYRVLEPVRPKEASSSACDLPREVWLLETPQADDFWCEGEPYPGPKVFP
# B2: 2-aminoethanethiol dioxygenase (ADO), full-length human, N-terminally His-tagged and biotinylated (pQE80L-Navi-ADO) [modified: biotin (biotinylated during expression, 0.2 mM biotin added); biotin (biotinylated during … (parent)
# chain 1: CFPKVLSDDMKKLK
# chain 2: B1 chain 2
# Variants of: B1
# Assay: SPR
# Settings: with RGS5_(2-15), parent: 1, read off a plot
row,ratio to parent (fold difference),Variant
1,110,chain 2 MPRDNMASLIQRIARQACLTFRGSGGGRGASDRDAASGPEAPMQPGFPENLSKLKSLLTQLRAEDLNIAPRKATLQPLPPNLPPVTYMHIYETDGFSLGVFLLKSGTSIPLHDHPGMHGMLKVLYGTVRISCMDKLDAGGGQRPRALPPEQQFEPPLQPREREAVRPGVLRSRAEYTEASGPCILTPHRDNLHQIDAVEGPAAFLDILAPPADPDDGRDCHYYRVLEPVRPKEASSSACDLPREVWLLETPQADDFWCEGEPYPGPKVFP [chain 2 Y212A]
2,39,chain 2 MPRDNMASLIQRIARQACLTFRGSGGGRGASDRDAASGPEAPMQPGFPENLSKLKSLLTQLRAEDLNIAPRKATLQPLPPNLPPVTYMHIYETDGFSLGVFLLKSGTSIPLHDHPGMHGMLKVLYGTVRISCMDKLDAGGGQRPRALPPEQQFEPPLQPREREAVRPGVLRSRAEYTEASGPCILTPHRDNLHQIDAVEGPAAFLDILAPPFDPDDGRDCHYYRVLEPVRPKEASSSACDLPREVWLLETPQADDFWCEGEPYPGPKVFP [chain 2 Y212F]
3,-4,chain 2 MPRDNMASLIQRIARQACLTFRGSGGGRGASDRDAASGPEAPMQPGFPENLSKLKSLLTQLRAEDLNIAPRKATLQPLPPNLPPVTYMHIYETDGFSLGVFLLKSGTSIPLHDHPGMHGMLKVLYGTVRISCMDKLDAGGGQRPRALPPEQQFEPPLQPREREAVRPGVLRSRAEYTEASGPCILTPHRDNLHQIDAVEGPAAFLNILAPPYDPDDGRDCHYYRVLEPVRPKEASSSACDLPREVWLLETPQADDFWCEGEPYPGPKVFP [chain 2 D206N]

# Variants of: B2
# Assay: SPR
# Settings: with IL32_(2-15), parent: 1, read off a plot
row,ratio to parent (fold difference),Variant
1,-7,chain 2 MPRDNMASLIQRIARQACLTFRGSGGGRGASDRDAASGPEAPMQPGFPENLSKLKSLLTQLRAEDLNIAPRKATLQPLPPNLPPVTYMHIYETDGFSLGVFLLKSGTSIPLHDHPGMHGMLKVLYGTVRISCMDKLDAGGGQRPRALPPEQQFEPPLQPREREAVRPGVLRSRAEYTEASGPCILTPHRDNLHQIDAVEGPAAFLNILAPPYDPDDGRDCHYYRVLEPVRPKEASSSACDLPREVWLLETPQADDFWCEGEPYPGPKVFP [chain 2 D206N]
2,60,chain 2 MPRDNMASLIQRIARQACLTFRGSGGGRGASDRDAASGPEAPMQPGFPENLSKLKSLLTQLRAEDLNIAPRKATLQPLPPNLPPVTYMHIYETDGFSLGVFLLKSGTSIPLHDHPGMHGMLKVLYGTVRISCMDKLDAGGGQRPRALPPEQQFEPPLQPREREAVRPGVLRSRAEYTEASGPCILTPHRDNLHQIDAVEGPAAFLDILAPPADPDDGRDCHYYRVLEPVRPKEASSSACDLPREVWLLETPQADDFWCEGEPYPGPKVFP [chain 2 Y212A]
3,19,chain 2 MPRDNMASLIQRIARQACLTFRGSGGGRGASDRDAASGPEAPMQPGFPENLSKLKSLLTQLRAEDLNIAPRKATLQPLPPNLPPVTYMHIYETDGFSLGVFLLKSGTSIPLHDHPGMHGMLKVLYGTVRISCMDKLDAGGGQRPRALPPEQQFEPPLQPREREAVRPGVLRSRAEYTEASGPCILTPHRDNLHQIDAVEGPAAFLDILAPPFDPDDGRDCHYYRVLEPVRPKEASSSACDLPREVWLLETPQADDFWCEGEPYPGPKVFP [chain 2 Y212F]
